Reference: patent US20230365705A1 (DYNAMICURE BIOTECHNOLOGY, published 2023)
Several values for one entry are separate records, joined by “and”; a condition that tells them apart may be missing. Identical values can stand only once.

Legend:
[1] = target: T1, Human CD93 recombinant protein (Sino Biological Inc, Catalog #12589-H08H) (human, UniProt Q9NPY3 22-580); assay: ELISA, antigen coated at 1 µg/mL
T1 construct: Biotinylated (EZ-LINK NHS-PEG4 biotin) in the BLI assays; also called hCD93; His-tagged human CD93
T1 sequence (looked up): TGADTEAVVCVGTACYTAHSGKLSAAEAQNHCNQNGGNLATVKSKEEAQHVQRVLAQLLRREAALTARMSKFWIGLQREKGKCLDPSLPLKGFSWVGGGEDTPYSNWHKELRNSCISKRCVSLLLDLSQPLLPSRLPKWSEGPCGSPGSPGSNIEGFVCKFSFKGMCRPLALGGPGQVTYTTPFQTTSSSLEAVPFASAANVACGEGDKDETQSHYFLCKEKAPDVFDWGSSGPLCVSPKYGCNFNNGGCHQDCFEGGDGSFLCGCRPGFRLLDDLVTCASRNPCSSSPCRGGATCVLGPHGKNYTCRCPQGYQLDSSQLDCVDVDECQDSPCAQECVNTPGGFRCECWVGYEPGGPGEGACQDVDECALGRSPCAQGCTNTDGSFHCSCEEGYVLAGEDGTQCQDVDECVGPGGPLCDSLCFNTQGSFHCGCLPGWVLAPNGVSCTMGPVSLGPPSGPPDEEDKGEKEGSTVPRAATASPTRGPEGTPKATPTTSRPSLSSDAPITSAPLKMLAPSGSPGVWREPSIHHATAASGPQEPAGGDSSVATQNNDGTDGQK
Method: (§1) His-tagged human CD93, cyno CD93, human VEGFA, and mouse VEGFA were coated onto a 96 well plate at 1 μg/mL in 1× PBS overnight at 4′C. The plate was washed with ELISA wash buffer (Boston BioProduct, Inc.) and the wells were blocked with 3% BSA/PBS ELISA blocking buffer for 1 hour at 37′C. […] The plate was washed with ELISA wash Buffer. HRP conjugated Anti-human Fc was added and incubated for one hour at 37° C. The plate was washed with ELISA wash buffer and read in a microplate reader at 405 nm.

[2] = target: T2, Human CD93 on cells (human CD93 expressing CHO cells; HUVEC, U937 and KG1a cells) (human, UniProt Q9NPY3 22-652); assay: flow cytometry on human CD93 expressing CHO cells (10 µg/ml by the text)
T2 construct: whole, on cells; also called hCD93 expressing CHO cells; hCD93 CHO cells
T2 sequence (looked up): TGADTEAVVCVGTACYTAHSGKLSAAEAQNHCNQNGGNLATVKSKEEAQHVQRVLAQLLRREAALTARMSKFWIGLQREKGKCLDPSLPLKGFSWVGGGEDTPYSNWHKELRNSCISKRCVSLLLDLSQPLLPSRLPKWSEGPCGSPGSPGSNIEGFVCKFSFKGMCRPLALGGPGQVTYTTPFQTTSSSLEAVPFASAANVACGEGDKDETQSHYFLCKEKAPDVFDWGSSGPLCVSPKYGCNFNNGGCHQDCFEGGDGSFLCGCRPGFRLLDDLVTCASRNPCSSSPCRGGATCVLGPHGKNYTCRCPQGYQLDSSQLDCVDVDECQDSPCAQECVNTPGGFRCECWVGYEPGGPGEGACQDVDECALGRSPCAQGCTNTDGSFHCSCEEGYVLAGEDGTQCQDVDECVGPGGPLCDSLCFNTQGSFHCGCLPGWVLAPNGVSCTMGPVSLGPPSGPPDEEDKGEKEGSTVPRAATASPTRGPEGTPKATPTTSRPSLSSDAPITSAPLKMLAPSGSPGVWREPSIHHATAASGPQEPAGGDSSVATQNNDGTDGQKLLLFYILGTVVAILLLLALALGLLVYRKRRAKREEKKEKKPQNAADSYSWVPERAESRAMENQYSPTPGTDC

[3] = target: T2, Human CD93 on cells (human CD93 …); assay: flow cytometry titration on KG1a cells; column head printed kd, unit from the axis log (concentration (M))
[4] = target: T2, Human CD93 on cells (human CD93 …); assay: flow cytometry, CHO cells overexpressing human CD93, antibody 0.01ug, mIgG1 as control, APC-A
[5] = target: T1, Human CD93 recombinant protein (Sino …); assay: ELISA, His-tagged human CD93 coated, OD450
Method: His-tagged human CD93 was coated onto a 96 well plate at 1 μg/mL in 1×PBS overnight at 4° C. The plate was washed with ELISA wash buffer (Boston BioProduct, Inc.) and the wells were blocked with ELISA blocking buffer for 1 hour at 37° C. […] The plate was washed with ELISA wash Buffer. […] The plate was washed with ELISA wash Buffer. HRP substrate was added for indirect detection of the antibodies binding to CD93.

[6] = target: T2, Human CD93 on cells (human CD93 …); assay: flow cytometry titration on U937 cells; column head printed kd, unit from the axis log (concentration (M))
[7] = target: T1, Human CD93 recombinant protein (Sino …); assay: ELISA, hCD93-His coated, OD450
Method: His-tagged human CD93 was coated onto a 96 well plate at 1 μg/mL in 1×PBS overnight at 4° C. The plate was washed with ELISA wash buffer (Boston BioProduct, Inc.) and the wells were blocked with ELISA blocking buffer for 1 hour at 37° C. Purified antibodies were serially diluted in ELISA blocking buffer (Boston BioProduct, Inc.) and incubated on the receptor for 1 hour at 37° C. The plate was washed with ELISA wash Buffer. […] The plate was washed with ELISA wash buffer. HRP substrate was added for indirect detection of the antibodies binding to CD93.

[8] = target: T3, rh VEGFA (recombinant human VEGFA) (human, UniProt P15692-4 27-191, limits assumed); assay: ELISA, antigen coated at 1 µg/mL
Method: as §1

[9] = target: T1, Human CD93 recombinant protein (Sino …); assay: summary table, column ELISA (hCD93)
[10] = target: T4, rm VEGFA (recombinant mouse VEGFA) (mouse, UniProt Q00731-2 27-190, limits assumed); assay: ELISA, mVEGFA coated at 1 µg/mL, anti-human Fc HRP; single bars, concentration not given
T4 sequence (looked up): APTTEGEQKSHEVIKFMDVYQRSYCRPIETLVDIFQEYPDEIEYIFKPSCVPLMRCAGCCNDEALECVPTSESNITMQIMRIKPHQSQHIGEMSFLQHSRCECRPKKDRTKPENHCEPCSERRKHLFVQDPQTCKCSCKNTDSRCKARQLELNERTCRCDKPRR
Method: as §1

[11] = target: T1, Human CD93 recombinant protein (Sino …); assay: ELISA, His-tagged human CD93 coated, OD450; remark: listed apart in the source
Method: His-tagged human CD93 was coated onto a 96 well plate at 1 μg/mL in 1×PBS overnight at 4° C. The plate was washed with ELISA wash buffer (Boston BioProduct, Inc.) and the wells were blocked with ELISA blocking buffer for 1 hour at 37° C. […] The plate was washed with ELISA wash Buffer. HRP-conjugated anti-human Fc antibody was incubated for 1 hour at 37° C. The plate was washed with ELISA wash Buffer. HRP substrate was added for indirect detection of the antibodies binding to CD93.

[12] = target: T1, Human CD93 recombinant protein (Sino …); assay: BLI (Octet QKe), biotinylated human CD93 on streptavidin biosensors
Method: The binding affinity of anti-CD93 antibodies was determined with bio-layer interferometry using Octet QKe (Fortebio). […] Human CD93 recombinant protein (Sino Biological Inc, Catalog #12589-H08H) was biotinylated using EZ-LINK NHS-PEG4 biotin (Thermo Fisher Scientific). Streptavidin biosensors (Fortebio) were used to load biotinylated CD93 protein (300 seconds in 5 μg/ml). Baseline was stabilized for 60 seconds in 1×kinetics buffer (Fortebio) before anti-CD93 antibodies, at a serial dilution, were allowed to associate for 300 seconds with captured protein. Then the sensors were dissociated in 1× kinetics buffer for 600 seconds. […] (FIG. 41).

[13] = target: T1, Human CD93 recombinant protein (Sino …); assay: summary table, column Octet (hCD93)
[14] = target: T2, Human CD93 on cells (human CD93 …); assay: flow cytometry on human CD93 expressing CHO cells
Method: Human CD93 expressing CHO cells were detached by incubation with TrypLE reagents (Thermo Fisher), which preserves the integrity of CD93 on the cell surface. Then the cells were incubated with serially diluted anti-CD93 antibodies for 30 minutes in 4° C. After washing by FACS buffer, the cells were incubated with Alexa Fluor 647 conjugated anti-human IgG (Jackson ImmunoResearch) for 30 minutes in 4° C. After washing by FACS buffer twice, the samples were acquired in NovoCyte Flow Cytometer and analyzed by NovoExpress software.

[15] = target: T3, rh VEGFA (recombinant human VEGFA); assay: BLI (Octet), biotinylated rh VEGFA on streptavidin biosensors, sample in serial dilution
Method: (§2) The rh VEGFA was made in-house and biotinylated using EZ-LINK NHS-PEG4 biotin (Thermo Fisher Scientific). Streptavidin biosensors (Fortebio) were used to load biotinylated rh VEGFA protein (300 seconds in 5 μg/ml). […] Then the sensors were dissociated in 1× kinetics buffer for 600 seconds.

[16] = target: T3, rh VEGFA (recombinant human VEGFA); assay: BLI (Octet QKe), biotinylated rh VEGFA on streptavidin sensors
Method: as §2

B1: chimeric 7F3/VEGFRFc (chimeric 7F3-Aflibercept) (bispecific antibody, human IgG1, kappa)
heavy: not shown
light: ENVLTQSPAIMSASPGEKVTMTCRASSSVSSSYLHWYQQKSGASPKLWIYSTSNLAFGVPARFSGSGSGTSYSLTISSVEAEDAATYYCQQYSGYPLTFGSGTKLEIKRTVAAPSVFIFPPSDEQLKSGTASVVCLLNNFYPREAKVQWKVDNALQSGNSQESVTEQDSKDSTYSLSSTLTLSKADYEKHKVYACEVTHQGLSSPVTKSFNRGEC
notes: also called chimeric 7F3/VEGFR construct
binding result [1]: binds | binding result [2]: binds

B2: humanized 17B10 (VH3VL3, i.e., H3L3) with a chimeric Fc containing mouse IgG1 CH2 and CH3 domains and human CH1 domains (antibody, V domains shown)
VH: QVQLVQSGPEVKKPGESLKISCKASGYAFSSYWLNWVRQMPGKGLEWMGRIYPGDGDTDYNGKFKGQVTISADKSSGTAYLQLSSLKASDTAVYFCVRGDGYWAMDYWGQGTLVTVSS
VL: DIVMTQSPDSLAVSLGERATINCRFSKSLLHSNGITYLYWYQQKPGQPPKLLIYQMSNLASGVPDRFSGSGSGTDFTLTISSLQAEDVAVYYCAQNLELPWTFGGGTKLEIK
notes: Human CH1, mouse IgG1 CH2 and CH3; also called h17B10-H3L3; humanized 17B10-mFc
Kd [3]: 77.2 pM and 95.2 pM | M2 gate, % of cells [4]: 93% | EC50 [5]: 213 pM | Kd [6]: 104 pM and 94.4 pM

B3: 7F3-hIgG1 (recombinant chimeric 7F3) (antibody, V domains shown)
VH: QVQLQQSGADLVRPGASVKLSCKASGYTFTDYEMHWVKQTPVYGLEWIGGIDPETGDTAYNQNFKGKATLTADKSSSAAYMELRSLTSEDSAVYYCTNYGNLYYYAMDYWGQGTSVTVSS
VL: ENVLTQSPAIMSASPGEKVTMTCRASSSVSSSYLHWYQQKSGASPKLWIYSTSNLAFGVPARFSGSGSGTSYSLTISSVEAEDAATYYCQQYSGYPLTFGSGTKLEIK
notes: also called chimeric 7F3-hIgG1; recombinant 7F3
EC50 [7]: 20 pM | binding result [8]: no binding | EC50 [9]: 41 pM | binding result [10]: no binding | EC50 [11]: 41 pM | Kd [12]: 588 pM | koff [12]: 0.000335 s⁻¹ | kon [12]: 570000 M⁻¹ s⁻¹ | Kd [13]: 588 pM | EC50 [14]: 400 pM

B4: 16E4-hIgG1 (recombinant chimeric 16E4) (antibody, V domains shown)
VH: QVQLQQPGAELVKPGASVKLSCKASGYTFTSYWMHWVKQRPGQGLEWIGEIDPSASYTYYNQKFKGKATLTVDKSSSTAYMQLSSLTSEDSAVYYCARSVYYGNKYFDVWGAGTTVTVSS
VL: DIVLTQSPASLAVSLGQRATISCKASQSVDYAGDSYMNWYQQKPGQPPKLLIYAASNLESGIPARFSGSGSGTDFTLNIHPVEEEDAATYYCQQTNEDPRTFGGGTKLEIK
notes: the same paragraph once calls it 'humanized'; also called recombinant 16E4
EC50 [7]: 22 pM | EC50 [9]: 41 pM | EC50 [11]: 41 pM | Kd [12]: 135 pM | koff [12]: 2.93e-05 s⁻¹ | kon [12]: 217000 M⁻¹ s⁻¹ | Kd [13]: 135 pM | EC50 [14]: 240 pM

B5: humanized 7F3/VEGFRFc (h7F3/VEGFRFc) (bispecific antibody, human IgG1, kappa)
heavy: not shown
light: EIVLTQSPSSLSASVGDRVTITCRASSSVSSSYLHWYQQKPGKAPKLLIYSTSNLAFGVPSRFSGSGSGTSYTFTISSLQPEDIATYYCQQYSGYPLTFGSGTKLEIKRTVAAPSVFIFPPSDEQLKSGTASVVCLLNNFYPREAKVQWKVDNALQSGNSQESVTEQDSKDSTYSLSSTLTLSKADYEKHKVYACEVTHQGLSSPVTKSFNRGEC
notes: Full-length human IgG1 with VEGF-trap on the C-terminus of both heavy chains; also called humanized 7F3-Aflibercept; h7F3-VEGF trap
Kd [15]: 2010 pM | koff [15]: 0.000121 s⁻¹ | kon [15]: 60300 M⁻¹ s⁻¹ | Kd [16]: 2000 pM
